# Target: Shroom2 ASD2 domain (UniProt Q13796)
# Assay: pull-down of Ala mutants
# Conditions: reference: Scrib-C wild type; sites S1508
# Sequence of UniProt Q13796 (Q13796 whole entry, looked up, the tested form may be a part): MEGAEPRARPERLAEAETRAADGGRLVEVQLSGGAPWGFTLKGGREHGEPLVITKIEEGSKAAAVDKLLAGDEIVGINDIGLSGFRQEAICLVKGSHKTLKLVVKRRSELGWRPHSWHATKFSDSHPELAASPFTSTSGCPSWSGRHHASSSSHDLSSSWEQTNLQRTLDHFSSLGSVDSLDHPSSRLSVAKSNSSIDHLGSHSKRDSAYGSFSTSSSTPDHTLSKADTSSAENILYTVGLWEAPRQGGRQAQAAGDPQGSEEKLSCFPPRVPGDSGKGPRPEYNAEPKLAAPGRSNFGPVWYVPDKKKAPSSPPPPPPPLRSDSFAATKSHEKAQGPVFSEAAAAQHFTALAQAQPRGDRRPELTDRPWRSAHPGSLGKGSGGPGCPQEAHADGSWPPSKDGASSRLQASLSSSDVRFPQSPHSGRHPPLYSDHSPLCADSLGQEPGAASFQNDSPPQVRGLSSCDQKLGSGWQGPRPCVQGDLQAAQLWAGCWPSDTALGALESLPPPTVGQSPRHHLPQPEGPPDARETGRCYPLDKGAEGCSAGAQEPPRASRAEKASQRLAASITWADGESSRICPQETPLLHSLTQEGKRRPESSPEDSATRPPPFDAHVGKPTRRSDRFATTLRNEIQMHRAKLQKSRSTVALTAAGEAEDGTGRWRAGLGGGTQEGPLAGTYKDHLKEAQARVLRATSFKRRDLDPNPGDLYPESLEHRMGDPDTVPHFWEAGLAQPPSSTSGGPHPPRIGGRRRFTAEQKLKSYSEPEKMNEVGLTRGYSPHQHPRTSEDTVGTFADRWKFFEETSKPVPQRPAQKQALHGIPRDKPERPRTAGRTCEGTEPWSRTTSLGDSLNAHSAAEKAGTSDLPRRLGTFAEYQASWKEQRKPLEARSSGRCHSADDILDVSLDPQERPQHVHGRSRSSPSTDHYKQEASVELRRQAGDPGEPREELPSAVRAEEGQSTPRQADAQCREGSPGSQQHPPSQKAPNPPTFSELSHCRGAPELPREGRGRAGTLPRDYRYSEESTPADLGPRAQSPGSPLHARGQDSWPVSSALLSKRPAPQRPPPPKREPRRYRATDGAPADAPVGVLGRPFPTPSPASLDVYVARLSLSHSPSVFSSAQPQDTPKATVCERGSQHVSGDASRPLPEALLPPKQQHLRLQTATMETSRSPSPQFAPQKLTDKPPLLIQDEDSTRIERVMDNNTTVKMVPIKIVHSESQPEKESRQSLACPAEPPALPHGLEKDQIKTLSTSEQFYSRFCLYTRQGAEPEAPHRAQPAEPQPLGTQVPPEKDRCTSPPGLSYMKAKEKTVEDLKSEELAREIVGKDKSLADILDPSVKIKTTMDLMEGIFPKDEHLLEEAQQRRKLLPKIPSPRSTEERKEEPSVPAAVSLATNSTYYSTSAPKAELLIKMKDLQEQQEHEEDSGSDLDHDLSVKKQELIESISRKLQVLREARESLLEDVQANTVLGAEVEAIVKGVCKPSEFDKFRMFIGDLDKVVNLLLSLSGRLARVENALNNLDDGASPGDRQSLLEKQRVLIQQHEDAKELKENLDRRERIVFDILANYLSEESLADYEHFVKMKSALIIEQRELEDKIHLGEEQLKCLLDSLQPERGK
substance,measurement,value
"Scrib Scrib-C, 1235-1630 (from UniProt Q14160-1) Scrib-C S1508A",binding against the reference,weaker

# From PMC4477863
